Consider 1 protein from FireProtDB (doi:10.1021/bi0015717).

For this series the following is noted: Homo sapiens; pH 2.7; Thermal; DSC; glycine-HCl 0.05 M; reversible: yes; whole UniProt chain shown.

B1: Lysozyme C wild type, P61626 (protein)
chain: MKALIVLGLVLLSVTVQGKVFERCELARTLKRLGMDGYRGISLANWMCLAKWESGYNTRATNYNAGDRSTDYGIFQINSRYWCNDGKTPGAVNACHLSCSALLQDNIADAVACAKRVVRDPQGIRAWVAWRNRCQNRDVRQYVQGCGV
Usually Tm stands for the temperature at the midpoint of the melting transition. As to B1, the Tm amounted to 64.9 °C, the “heat capacity change of unfolding” value turned out to be 1.58 kcal/mol/K and the “unfolding enthalpy (calorimetric)” value was found to be 114 kcal/mol.
